The values below are quoted from earlier work in PMC4223872.

The target in this series is Calmodulin C-lobe (Homo sapiens) (UniProt P0DP23). Kind of series: ITC.

Sequence of Nav1.5 1489-1522 (Q14524 1489-1522): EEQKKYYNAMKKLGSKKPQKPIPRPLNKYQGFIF

As usually defined, the Kd is the equilibrium constant for the complex coming apart. With Nav1.5 1489-1522 (from UniProt Q14524), the Kd is 19 µM.
